In patent US20250205337A1, “COMPOSITIONS AND METHODS FOR ACTIVATING IMMUNE CELLS” (MDX Management LLC, priority 2022, published 2025):
Entries after “also recorded” stand apart in the source; their conditions may differ.

Tests used:
Assay type in all cases: cell-based, human
κAPC = experiment: Proinflammatory phenotype of κAPC (KX2 refinement); details: in the presence of tumor cells
Excerpt: Karnelian X1 cytokines, additional cytokines, TLR ligands and other factors for phenotypic optimization of cMo-derived APCs were further tested. These efforts led to the formation of Karnelian X2, which acted to further bolster κAPC for phagocytosis, immunogenic antigen presentation, and T cell priming, and also endowed κAPC with a proinflammatory phenotype and the ability to resist repolarization in the tumor microenvironment. KX2™ comprises cytokines (choices of IFNα, IFNγ and TNFα), TLR ligands (choices of Poly IC, CpG, R848), and TPI-1.

[1] = tested on: monocytes from cancer patients (cMo); experiment: cMo survival in vitro (STAT3 activators, inhibitors, M-CSF/GM-CSF, KX1)
Excerpt: After two days, the T cell culture medium was used to treat cMo.
IL-10/IL-10R signaling activates the downstream STAT3 signaling pathway.
(§1) The mechanisms by which KX1 could promote cMo survival was further studied.

[2] = tested on: Akt, Erk1/2, STAT3, caspase-9 and caspase-3 in cMo; experiment: Survival and apoptosis signal transduction in cMo (Western blotting)
Excerpt: (§2) Examination of Akt and Erk1/2, as well as other signaling molecules, detected similar total levels in Mo versus cMo (FIG. 2C), ruling out the absence of protein phosphorylation due to reduction of protein translation.
as §1
The role of IL-10 and other key factors in KX1 was further studied. As shown in FIG. 9A-9D, depletion of IL-10 diminished (>70%) KX1-mediated activation of Akt, Erk 1/2, and STAT3, and this global reduction of survival signal was associated with an increase in cell death signal through activation of caspase-9 and caspase-3.
As shown in FIG. 10A-10C, triple cytokine combination (C-combo V1) was capable of achieving >80% cMo differentiation, although each component alone was not sufficient.

[3] = tested on: monocytes from cancer patients (cMo); experiment: Cytokine depletion assays of Karnelian X1 (cMo survival/adhesion and differentiation); details: depletion assays
Protocol: The differentiation of cMo from >100 cancer patient samples was tested.
The role of IL-10 and other key factors in KX1 was further studied.

[4] = tested on: monocytes from healthy donors (Mo); experiment: Response of monocytes from healthy donors (Mo) to M-CSF and GM-CSF
Excerpt: Similarly, cMo poorly respond to GM-CSF alone or GM-CSF plus IL-4 that drives DC differentiation (data not shown). […] Parallel experiments testing the same M-CSF and GM-CSF reagents successfully differentiated Mo from healthy donors with >90% survival rates.
as §2

IL-10 = IL-10 production by cMo
Excerpt: Particularly, high levels of IL-10 and IL-6 were detected in Karnelian X1. Further cytokine depletion assays confirmed the critical role of IL-10, and its depletion largely (60-80%) diminished the capacity of cMo adhesion and survival (FIG. 5B).

O=C1C=CC(=O)C(c2cc(Cl)ccc2Cl)=C1 [TPI-1]
proinflammatory phenotype of κAPC (κAPC): promotes proinflammatory phenotype of κAPC

B1: M-CSF: classical macrophage differentiation factor (protein, UniProt P09603 33-554, looked up)
Macrophage colony-stimulating …: EEVSEYCSHMIGSGHLQSLQRLIDSQMETSCQITFEFVDQEQLKDPVCYLKKAFLLVQDIMEDTMRFRDNTPNAIAIVQLQELSLRLKSCFTKDYEEHDKACVRTFYETPLQLLEKVKNVFNETKNLLDKDWNIFSKNCNNSFAECSSQDVVTKPDCNCLYPKAIPSSDPASVSPHQPLAPSMAPVAGLTWEDSEGTEGSSLLPGEQPLHTVDPGSAKQRPPRSTCQSFEPPETPVVKDSTIGGSPQPRPSVGAFNPGMEDILDSAMGTNWVPEEASGEASEIPVPQGTELSPSRPGGGSMQTEPARPSNFLSASSPLPASAKGQQPADVTGTALPRVGPVRPTGQDWNHTPQKTDHPSALLRDPPEPGSPRISSLRPQGLSNPSTLSAQPQLSRSHSSGSVLPLGELEGRRSTRDRRSPAEPEGGPASEGAARPLPRFNSVPLTDTGHERQSEGSFSPQLQESVFHLLVPSVILVLLAVGGLLFYRWRRRSHQEPQRADSPLEQPEGSPLTQDDRQVELPV
cMo responsiveness to differentiation factor ([1]; over twenty cMo samples, various solid tumors): non- or poor responsiveness
activation of Akt, Erk1/2, STAT3 in cMo [2]: failed to activate Akt and Erk1/2
caspase-9 and caspase-3 cleavage in cMo [2]: increased caspase-9 and caspase-3 cleavage; also recorded: did induce apoptotic signals via cleavage of caspase-9 and caspase-3
role of the cytokine in Karnelian X1 for cMo survival and differentiation [3]: dispensable
survival signal transduction in Mo (activation of Akt and Erk1/2) [4]: induced strong survival signal transduction in Mo cells

B2: IL-12: IL-12 family cytokine, STAT3 activator (protein, UniProt P29459 23-219; P29460 23-328, looked up)
Interleukin-12 subunit alpha: RNLPVATPDPGMFPCLHHSQNLLRAVSNMLQKARQTLEFYPCTSEEIDHEDITKDKTSTVEACLPLELTKNESCLNSRETSFITNGSCLASRKTSFMMALCLSSIYEDLKMYQVEFKTMNAKLLMDPKRQIFLDQNMLAVIDELMQALNFNSETVPQKSSLEEPDFYKTKIKLCILLHAFRIRAVTIDRVMSYLNAS
Interleukin-12 subunit beta: IWELKKDVYVVELDWYPDAPGEMVVLTCDTPEEDGITWTLDQSSEVLGSGKTLTIQVKEFGDAGQYTCHKGGEVLSHSLLLLHKKEDGIWSTDILKDQKEPKNKTFLRCEAKNYSGRFTCWWLTTISTDLTFSVKSSRGSSDPQGVTCGAATLSAERVRGDNKEYEYSVECQEDSACPAAEESLPIEVMVDAVHKLKYENYTSSFFIRDIIKPDPPKNLQLKPLKNSRQVEVSWEYPDTWSTPHSYFSLTFCVQVQGKSKREKKDRVFTDKTSATVICRKNASISVRAQDRYYSSSWSEWASVPCS
cMo survival (and differentiation) on supplementation ([1]; IL-10-depleted KX1 / in place of IL-10): could replace IL-10 to support cMo survival and differentiation
Effectiveness (cMo survival rate) ([1]; in vitro, at optimal concentration): 50-70%
Optimal concentration (ng/mL) ([1]; promoting cMo survival in vitro): >10 ng/mL (10-100)
induction of IL-10 in cMo (IL-10): induction of IL-10
